Columns and labels:
[1] = molecular target: T1, hAng-1 WT binding to Tie-2 (Homo sapiens, UniProt Q15389); assay: ELISA blocking of full-length hAng-1 WT binding to hTie-2-mFc; type: biochemical; settings: 0.6 nM hAng-1-His
T1 construct: Full-length human Ang-2 or Ang-1 protein conjugated to 6× histidine tag (R&D Systems, Minneapolis, Minn.); purchased R&D Systems
T1 sequence (Q15389 20-498 limits assumed): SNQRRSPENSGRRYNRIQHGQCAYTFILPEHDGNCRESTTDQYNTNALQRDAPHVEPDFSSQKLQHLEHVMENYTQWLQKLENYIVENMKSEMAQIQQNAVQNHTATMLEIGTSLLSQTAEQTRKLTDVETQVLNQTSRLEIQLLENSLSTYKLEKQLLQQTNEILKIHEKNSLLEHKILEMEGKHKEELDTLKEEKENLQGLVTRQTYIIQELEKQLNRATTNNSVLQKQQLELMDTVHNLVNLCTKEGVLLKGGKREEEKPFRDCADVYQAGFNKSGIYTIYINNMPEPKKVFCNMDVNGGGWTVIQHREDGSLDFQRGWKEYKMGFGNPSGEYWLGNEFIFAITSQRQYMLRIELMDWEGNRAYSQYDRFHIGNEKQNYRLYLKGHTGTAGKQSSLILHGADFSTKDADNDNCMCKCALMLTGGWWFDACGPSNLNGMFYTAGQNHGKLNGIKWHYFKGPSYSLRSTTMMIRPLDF
Protocol: The ELISA experiments shown in this Example were conducted in a similar manner to the experiments of Example 5. Briefly, hTie-2-mFc (a chimeric construct consisting of human Tie-2 conjugated to mouse IgG; SEQ ID NO:525) was coated onto 96-well plates at a concentration of 2 μg/ml and incubated overnight followed by washing four times in wash buffer (PBS with 0.05% Tween-20). The plate was then blocked with PBS (Irvine Scientific, Santa Ana, Calif.) containing 0.5% BSA (Sigma-Aldrich Corp., St. Louis, Mo.) for one hour at room temperature. In a separate plate, purified anti-Ang-2 antibodies and control constructs, at a starting concentration of 300 nM, were serially diluted by a factor of three across the plate. Full-length human Ang-2 or Ang-1 protein conjugated to 6× histidine tag (R&D Systems, Minneapolis, Minn.) were added to a final concentration of 0.6 nM and incubated for one hour at room temperature. The antibody/antigen mixture was then added to the plate containing hTie-2-mFc and incubated for one hour at room temperature. Detection of Ang-2-His or Ang-1-His bound to hTie-2-mFc protein was determined with Horse-Radish Peroxidase (HRP) conjugated to a-Penta-His antibody (Qiagen, Valencia, Calif.) and developed by standard colorimetric response using tetramethylbenzidine (TMB) substrate (BD Biosciences, San Jose, Calif.). Absorbance was read at OD450 for 0.1 sec. […]

[2] = molecular target: T2, hAng-2FD-mFc I-434-M (Homo sapiens, UniProt O15123, I434M); assay: Ang-2FD-mFc point mutant binding experiment (SPR), I-434-M; settings: I-434-M mutant captured; antibody/peptibody at 100 nM; 25° C.
T2 construct: made in house
T2 sequence (O15123 with tags, fused parts or gaps I434M): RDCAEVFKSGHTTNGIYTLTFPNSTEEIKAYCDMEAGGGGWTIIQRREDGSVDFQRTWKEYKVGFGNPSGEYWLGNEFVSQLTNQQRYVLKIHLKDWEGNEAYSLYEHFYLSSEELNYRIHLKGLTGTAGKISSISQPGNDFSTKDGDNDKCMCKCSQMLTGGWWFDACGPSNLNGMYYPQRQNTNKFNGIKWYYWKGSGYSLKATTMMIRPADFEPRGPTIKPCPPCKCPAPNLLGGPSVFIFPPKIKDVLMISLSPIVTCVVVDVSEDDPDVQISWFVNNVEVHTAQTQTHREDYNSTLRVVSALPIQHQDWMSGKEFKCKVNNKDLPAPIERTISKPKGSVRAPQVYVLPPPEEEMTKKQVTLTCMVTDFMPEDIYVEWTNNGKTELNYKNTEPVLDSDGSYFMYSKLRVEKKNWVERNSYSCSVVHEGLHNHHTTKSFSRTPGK
Source text: To further characterize binding between hAng2 and anti-hAng2 mAbs of the invention, seven variant hAng2-FD-mFc proteins were generated, each containing a single point mutation. Amino acids selected for mutation were based on the difference in sequence between hAng-2 and hAng-1 in the region that interacts with hTie-2 (FIG. 1). In particular, amino acids within the fibrinogen-like domain (FD) of Ang-2 which are believed to interact with Tie-2 based on crystal structure analysis, but which differ from the corresponding amino acid in Ang-1, were individually mutated to the corresponding hAng-1 residue. The results of this example indicate the amino acid residues of hAng-2 with which the Ang-2 preferential binding antibodies interact.
In this experiment, each of the seven hAng-2FD-mFc mutant proteins were captured (˜147-283 RU) on an anti-mouse-Fc surface created through direct chemical coupling to a BIACORE™ chip. Then each Ang-2 antibody (or peptibody, as the case may be) at 100 nM was injected over the captured mFc-tagged hAng-2FD protein surface at a flowrate of 50 μl/min for 180 sec, and the dissociation of variant hAng2-FD-mFc and antibody was monitored in real time for 20 min at 25° C.

[3] = molecular target: T3, Monomeric hAng-2FD (Homo sapiens, UniProt O15123); assay: SPR binding to monomeric hAng-2FD at 25° C. and 37° C.
T3 sequence (O15123 282-496 limits assumed): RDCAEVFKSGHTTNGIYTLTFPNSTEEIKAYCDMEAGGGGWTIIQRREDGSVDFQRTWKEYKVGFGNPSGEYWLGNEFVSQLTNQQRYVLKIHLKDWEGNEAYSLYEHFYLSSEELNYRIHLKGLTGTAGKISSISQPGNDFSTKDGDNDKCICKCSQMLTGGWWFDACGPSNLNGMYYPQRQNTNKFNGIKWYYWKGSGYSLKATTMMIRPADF
Protocol: Additional experiments were conducted to measure the binding properties of selected anti-Ang-2 antibodies to monomeric hAng-2FD at 25° C. and 37° C. Each selected antibody or control construct was captured at a flow rate of 40 μL/min for 1 minute on a goat anti-human IgG polyclonal antibody surface created through direct chemical coupling to a BIACORE™ chip to form a captured antibody surface. Human Ang-2FD at a concentration of 500 nM or 7.8 nM was injected over the captured antibody surface at a flowrate of 60 μL/min for 3 minutes, and antigen-antibody dissociation was monitored in real time for 20 minutes at either 25° C. or 37° C.

With “H1H685P: human anti-Ang-2 antibody, HCVR/LCVR SEQ ID NOs 18/20; also referred to as mAb1 [Antibody H1H685P]” the IC50 [1] was over 300 nM, the Kd [2] was 0.0179 nM and the RU [2] was 235.95 RU. For the same substance, the Kd ([3]; 25° C.) was 0.336 nM, the “ka, binding to monomeric hAng-2FD” value ([3]; 25° C.) was 244000 M/s and the “kd, binding to monomeric hAng-2FD” value ([3]; 25° C.) was 7.96e-05 s⁻¹. The Kd ([3]; 37° C.) was 0.342 nM, the “ka, binding to monomeric hAng-2FD” value ([3]; 37° C.) was 406000 M/s and the “kd, binding to monomeric hAng-2FD” value ([3]; 37° C.) was 0.000139 s⁻¹.

— US9926369B2, “Methods for treating hepatocellular cancer by administering an anti-Ang-2 antibody” (Regeneron Pharmaceuticals, Inc., priority 2009, dated 2018)
